We go through one substance from patent publication US20180355043A1.

Test in all cases: MSD ECL; antigen coated; protocol of Example 3
Assay [1] concerns the target DR4G104: Human HLA-DRA1*01:02/DRB1*04:02 ECD with hemagglutinin peptide HA_304-318 (human).
For assay [2], the target named is DR4G119: Human HLA-DRA1*01:02/DRB1*10:01 ECD with hemagglutinin peptide HA_304-318 (human).
Assay [3] concerns the target DR4G103: Human HLA-DRA1*01:02/DRB1*15:01 ECD with hemagglutinin peptide HA_304-318 (human).

On to Isotype control (antibody), for which the ECL signal amounted to 1130 ECL in assay [1], 517 ECL in assay [2] and 487 ECL in assay [3].
